# Measurements from patent US20220062341A1 (KIRIN, published 2022).
# Biological target: CD3 subunits (CD3E, CD3G, CD3D, CD3Z) (human, UniProt P07766 23-207; P09693 23-182; P04234 22-171; P20963 22-164)
# Experiment: cell-based or functional assay
# Sequence of CD3 subunits (CD3E, CD3G, CD3D, CD3Z) (P07766 23-207, chain 1 of 4): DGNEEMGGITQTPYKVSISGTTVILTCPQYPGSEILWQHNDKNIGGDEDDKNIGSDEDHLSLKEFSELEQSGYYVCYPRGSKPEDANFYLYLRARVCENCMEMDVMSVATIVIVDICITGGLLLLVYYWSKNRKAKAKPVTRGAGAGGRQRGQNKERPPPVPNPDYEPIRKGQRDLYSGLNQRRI
# Sequence of CD3 subunits (CD3E, CD3G, CD3D, CD3Z) (P09693 23-182, chain 2 of 4): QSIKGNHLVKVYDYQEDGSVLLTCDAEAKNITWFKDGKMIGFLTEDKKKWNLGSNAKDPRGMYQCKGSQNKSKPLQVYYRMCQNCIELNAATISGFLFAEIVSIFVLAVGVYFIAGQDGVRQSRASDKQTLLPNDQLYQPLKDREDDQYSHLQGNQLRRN
# Sequence of CD3 subunits (CD3E, CD3G, CD3D, CD3Z) (P04234 22-171, chain 3 of 4): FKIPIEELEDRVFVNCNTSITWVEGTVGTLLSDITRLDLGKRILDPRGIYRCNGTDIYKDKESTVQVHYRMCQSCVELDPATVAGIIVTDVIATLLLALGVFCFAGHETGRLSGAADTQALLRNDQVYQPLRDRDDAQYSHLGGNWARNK
# Sequence of CD3 subunits (CD3E, CD3G, CD3D, CD3Z) (P20963 22-164, chain 4 of 4): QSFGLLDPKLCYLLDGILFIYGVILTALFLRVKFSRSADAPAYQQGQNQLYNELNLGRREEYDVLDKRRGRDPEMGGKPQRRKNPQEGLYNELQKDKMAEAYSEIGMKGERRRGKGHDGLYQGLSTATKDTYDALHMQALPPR
row,Binder,"CD3-recruiting activity (CD3-positive proportion, N=3), CD3-stably expressing 293T cells"
1,modified TCR of the combination of βCR and α4 (TCR) TCR alpha: DVYITDKTVLDMRSMDFKSNSAVAWSNKSDFACANAFNNSIIPEDTFFPSPESSCDVKLVEKSFETDTNLNFQNLSVIGFRILLLKVAGFNLLMTLRLWSS TCR beta: EDLKNVFPPEVAVFEPSEAEISHTQKATLVCLATGFYPDHVELSWWVNGKEVHSGVSTDPQPLKEQPALNDSRYCLSSRLRVSATFWQNPRNHFRCQVQFYGLSENDEWTQDRAKPVTQIVSAEAWGRADCGFTSESYQQGVLSATILYEILLGKATLYAVLVSALVLMAMVKRKDSRG,≥ 80%
2,modified TCR consisting of β1 and αCR (TCR) TCR alpha: NIQNPDPAVYQLRDSKSSDKSVCLFTDFDSQTNVSQSKDSDVYITDKTVLDMRSMDFKSNSAVAWSNKSDFACANAFNNSIIPEDTFFPSPESSCDVKLVEKSFETDTNLNFQNLSVIGFRILLLKVAGFNLLMTLRLWSS TCR beta: SEAEISHTQKATLVCLATGFYPDHVELSWWVNGKEVHSGVSTDPQPLKEQPALNDSRYCLSSRLRVSATFWQNPRNHFRCQVQFYGLSENDEWTQDRAKPVTQIVSAEAWGRADCGFTSESYQQGVLSATILYEILLGKATLYAVLVSALVLMAMVKRKDSRG,≥ 20%
3,modified TCR of the combination of βCR and α1 (TCR) TCR alpha: YQLRDSKSSDKSVCLFTDFDSQTNVSQSKDSDVYITDKTVLDMRSMDFKSNSAVAWSNKSDFACANAFNNSIIPEDTFFPSPESSCDVKLVEKSFETDTNLNFQNLSVIGFRILLLKVAGFNLLMTLRLWSS TCR beta: EDLKNVFPPEVAVFEPSEAEISHTQKATLVCLATGFYPDHVELSWWVNGKEVHSGVSTDPQPLKEQPALNDSRYCLSSRLRVSATFWQNPRNHFRCQVQFYGLSENDEWTQDRAKPVTQIVSAEAWGRADCGFTSESYQQGVLSATILYEILLGKATLYAVLVSALVLMAMVKRKDSRG,≥ 80%
4,modified TCR of the combination of βCR and α5 (TCR) TCR alpha: LDMRSMDFKSNSAVAWSNKSDFACANAFNNSIIPEDTFFPSPESSCDVKLVEKSFETDTNLNFQNLSVIGFRILLLKVAGFNLLMTLRLWSS TCR beta: EDLKNVFPPEVAVFEPSEAEISHTQKATLVCLATGFYPDHVELSWWVNGKEVHSGVSTDPQPLKEQPALNDSRYCLSSRLRVSATFWQNPRNHFRCQVQFYGLSENDEWTQDRAKPVTQIVSAEAWGRADCGFTSESYQQGVLSATILYEILLGKATLYAVLVSALVLMAMVKRKDSRG,≥ 80%
5,modified TCR of the combination of βCR and α3 (TCR) TCR alpha: NVSQSKDSDVYITDKTVLDMRSMDFKSNSAVAWSNKSDFACANAFNNSIIPEDTFFPSPESSCDVKLVEKSFETDTNLNFQNLSVIGFRILLLKVAGFNLLMTLRLWSS TCR beta: EDLKNVFPPEVAVFEPSEAEISHTQKATLVCLATGFYPDHVELSWWVNGKEVHSGVSTDPQPLKEQPALNDSRYCLSSRLRVSATFWQNPRNHFRCQVQFYGLSENDEWTQDRAKPVTQIVSAEAWGRADCGFTSESYQQGVLSATILYEILLGKATLYAVLVSALVLMAMVKRKDSRG,≥ 80%
6,modified TCR of the combination of βCR and α2 (TCR) TCR alpha: SVCLFTDFDSQTNVSQSKDSDVYITDKTVLDMRSMDFKSNSAVAWSNKSDFACANAFNNSIIPEDTFFPSPESSCDVKLVEKSFETDTNLNFQNLSVIGFRILLLKVAGFNLLMTLRLWSS TCR beta: EDLKNVFPPEVAVFEPSEAEISHTQKATLVCLATGFYPDHVELSWWVNGKEVHSGVSTDPQPLKEQPALNDSRYCLSSRLRVSATFWQNPRNHFRCQVQFYGLSENDEWTQDRAKPVTQIVSAEAWGRADCGFTSESYQQGVLSATILYEILLGKATLYAVLVSALVLMAMVKRKDSRG,≥ 80%
7,modified TCR consisting of β1 and α1 (TCR) TCR alpha: YQLRDSKSSDKSVCLFTDFDSQTNVSQSKDSDVYITDKTVLDMRSMDFKSNSAVAWSNKSDFACANAFNNSIIPEDTFFPSPESSCDVKLVEKSFETDTNLNFQNLSVIGFRILLLKVAGFNLLMTLRLWSS TCR beta: SEAEISHTQKATLVCLATGFYPDHVELSWWVNGKEVHSGVSTDPQPLKEQPALNDSRYCLSSRLRVSATFWQNPRNHFRCQVQFYGLSENDEWTQDRAKPVTQIVSAEAWGRADCGFTSESYQQGVLSATILYEILLGKATLYAVLVSALVLMAMVKRKDSRG,≥ 20%

# The remaining lines, values ahead:
row,"CD3-recruiting activity (CD3-positive proportion, N=3), CD3-stably expressing 293T cells",Binder
1,≥ 80%,modified TCR of the combination of βCR and αCR (TCR) TCR alpha: NIQNPDPAVYQLRDSKSSDKSVCLFTDFDSQTNVSQSKDSDVYITDKTVLDMRSMDFKSNSAVAWSNKSDFACANAFNNSIIPEDTFFPSPESSCDVKLVEKSFETDTNLNFQNLSVIGFRILLLKVAGFNLLMTLRLWSS TCR beta: EDLKNVFPPEVAVFEPSEAEISHTQKATLVCLATGFYPDHVELSWWVNGKEVHSGVSTDPQPLKEQPALNDSRYCLSSRLRVSATFWQNPRNHFRCQVQFYGLSENDEWTQDRAKPVTQIVSAEAWGRADCGFTSESYQQGVLSATILYEILLGKATLYAVLVSALVLMAMVKRKDSRG
2,≥ 80%,modified TCR of the combination of βCR and α7 (TCR) TCR alpha: SNKSDFACANAFNNSIIPEDTFFPSPESSCDVKLVEKSFETDTNLNFQNLSVIGFRILLLKVAGFNLLMTLRLWSS TCR beta: EDLKNVFPPEVAVFEPSEAEISHTQKATLVCLATGFYPDHVELSWWVNGKEVHSGVSTDPQPLKEQPALNDSRYCLSSRLRVSATFWQNPRNHFRCQVQFYGLSENDEWTQDRAKPVTQIVSAEAWGRADCGFTSESYQQGVLSATILYEILLGKATLYAVLVSALVLMAMVKRKDSRG
3,≥ 80%,modified TCR of the combination of βCR and α10 (TCR) TCR alpha: IPEDTFFPSPESSCDVKLVEKSFETDTNLNFQNLSVIGFRILLLKVAGFNLLMTLRLWSS TCR beta: EDLKNVFPPEVAVFEPSEAEISHTQKATLVCLATGFYPDHVELSWWVNGKEVHSGVSTDPQPLKEQPALNDSRYCLSSRLRVSATFWQNPRNHFRCQVQFYGLSENDEWTQDRAKPVTQIVSAEAWGRADCGFTSESYQQGVLSATILYEILLGKATLYAVLVSALVLMAMVKRKDSRG
4,≥ 80%,modified TCR of the combination of βCR and α9 (TCR) TCR alpha: FNNSIIPEDTFFPSPESSCDVKLVEKSFETDTNLNFQNLSVIGFRILLLKVAGFNLLMTLRLWSS TCR beta: EDLKNVFPPEVAVFEPSEAEISHTQKATLVCLATGFYPDHVELSWWVNGKEVHSGVSTDPQPLKEQPALNDSRYCLSSRLRVSATFWQNPRNHFRCQVQFYGLSENDEWTQDRAKPVTQIVSAEAWGRADCGFTSESYQQGVLSATILYEILLGKATLYAVLVSALVLMAMVKRKDSRG
5,≥ 80%,modified TCR of the combination of βCR and α6 (TCR) TCR alpha: KSNSAVAWSNKSDFACANAFNNSIIPEDTFFPSPESSCDVKLVEKSFETDTNLNFQNLSVIGFRILLLKVAGFNLLMTLRLWSS TCR beta: EDLKNVFPPEVAVFEPSEAEISHTQKATLVCLATGFYPDHVELSWWVNGKEVHSGVSTDPQPLKEQPALNDSRYCLSSRLRVSATFWQNPRNHFRCQVQFYGLSENDEWTQDRAKPVTQIVSAEAWGRADCGFTSESYQQGVLSATILYEILLGKATLYAVLVSALVLMAMVKRKDSRG
6,≥ 80%,modified TCR of the combination of βCR and α8 (TCR) TCR alpha: CANAFNNSIIPEDTFFPSPESSCDVKLVEKSFETDTNLNFQNLSVIGFRILLLKVAGFNLLMTLRLWSS TCR beta: EDLKNVFPPEVAVFEPSEAEISHTQKATLVCLATGFYPDHVELSWWVNGKEVHSGVSTDPQPLKEQPALNDSRYCLSSRLRVSATFWQNPRNHFRCQVQFYGLSENDEWTQDRAKPVTQIVSAEAWGRADCGFTSESYQQGVLSATILYEILLGKATLYAVLVSALVLMAMVKRKDSRG
